# Laboratory results reported in patent publication US20110053139A1.
# Like-named read-outs stand apart in the source and are kept apart here.
# What was measured:
# [1] = molecular target: Herpes Simplex virus type 1 (HSV-1), purified virus; test: SH-SAW biosensor (325 MHz), 204-4 mAb; HSV-1 alone at 3.6×10^6/µl
# [2] = molecular target: Coxsackie virus B4 (JVB strain) viral particles (Coxsackie virus B4 (JVB strain)) (UniProt P08292)
# [3] = molecular target: Coxsackie virus B4 (JVB strain) viral particles (Coxsackie virus B4 (JVB strain)) (UniProt P08292); test: SH-SAW biosensor (325 MHz), 204-4 mAb; Coxsackie B4 admixed with HSV-1 at equal concentration, high end of range
# [4] = molecular target: Coxsackie virus B4 (JVB strain) viral particles (Coxsackie virus B4 (JVB strain)) (UniProt P08292); test: SH-SAW biosensor (325 MHz), 204-4 mAb; Coxsackie B4 admixed with HSV-1 at equal concentration, low end of range
# Chain of UniProt P08292 (P08292 2-849): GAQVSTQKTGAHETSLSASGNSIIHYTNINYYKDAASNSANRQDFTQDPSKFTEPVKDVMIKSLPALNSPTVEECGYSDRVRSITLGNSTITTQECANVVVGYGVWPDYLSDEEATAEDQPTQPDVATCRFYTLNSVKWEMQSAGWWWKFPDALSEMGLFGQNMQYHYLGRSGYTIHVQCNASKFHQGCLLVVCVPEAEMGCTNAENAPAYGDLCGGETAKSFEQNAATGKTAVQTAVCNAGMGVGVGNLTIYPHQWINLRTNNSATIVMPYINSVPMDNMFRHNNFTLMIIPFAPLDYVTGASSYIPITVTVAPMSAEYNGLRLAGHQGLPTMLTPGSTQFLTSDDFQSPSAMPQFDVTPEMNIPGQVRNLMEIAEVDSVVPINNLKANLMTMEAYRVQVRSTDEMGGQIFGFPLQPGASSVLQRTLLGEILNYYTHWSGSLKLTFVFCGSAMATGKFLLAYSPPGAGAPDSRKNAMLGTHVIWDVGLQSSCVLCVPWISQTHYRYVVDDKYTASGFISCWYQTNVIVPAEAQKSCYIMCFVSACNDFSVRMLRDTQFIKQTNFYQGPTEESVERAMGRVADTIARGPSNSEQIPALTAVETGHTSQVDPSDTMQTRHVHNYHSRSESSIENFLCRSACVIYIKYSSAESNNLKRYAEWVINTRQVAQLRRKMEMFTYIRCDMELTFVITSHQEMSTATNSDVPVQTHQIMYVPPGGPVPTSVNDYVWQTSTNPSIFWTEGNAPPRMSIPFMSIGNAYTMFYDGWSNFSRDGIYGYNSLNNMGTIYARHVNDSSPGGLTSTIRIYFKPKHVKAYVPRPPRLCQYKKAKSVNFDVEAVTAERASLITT
substance,measurement,setting,value
"IgG2a isotype monoclonal antibody (mAb) directed against the JVB strain of Coxsackie virus B4, produ",phase differential mass shift Δφ,[1],0.64 degrees
same,phase differential mass shift Δφ,[2],0.95 to 6.99 degrees
same,phase differential mass shift Δφ,[3],7.24 degrees
same,phase differential mass shift Δφ,[4],1.09 degrees
